Where “and” joins values, the source holds several entries; their conditions need not be identical. Identical values can stand only once.

The target of test [1] is T1, 3D7 PfAMA1 (DI + DII) (Plasmodium falciparum 3D7, UniProt Q7KQK5 104-438).
T1 sequence (looked up): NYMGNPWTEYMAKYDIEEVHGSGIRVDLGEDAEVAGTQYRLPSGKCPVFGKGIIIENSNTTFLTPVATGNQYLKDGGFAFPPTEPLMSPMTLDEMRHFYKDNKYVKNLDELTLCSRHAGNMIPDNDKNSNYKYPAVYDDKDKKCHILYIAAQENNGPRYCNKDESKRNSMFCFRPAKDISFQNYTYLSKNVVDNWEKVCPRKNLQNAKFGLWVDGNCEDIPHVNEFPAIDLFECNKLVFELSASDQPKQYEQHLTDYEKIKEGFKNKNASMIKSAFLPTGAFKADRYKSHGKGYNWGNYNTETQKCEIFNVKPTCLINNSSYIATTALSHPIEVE
The test is described as follows: ITC. (ITC needs no label: the signal is the heat of the interaction.)

In test [2] the target is T1, 3D7 PfAMA1 (DI + DII). As to the kind of experiment: SPR. A general note: SPR reads the build-up and loss of mass on a sensor chip optically.

B1: PfRON2ed peptide (Asp2021-Ser2059) (peptide, UniProt Q8IKV6 2021-2059, looked up)
peptide: DITQQAKDIGAGPVASCFTTRMSPPQQICLNSVVNTALS
On to B1, for which the dissociation constant Kd (in general, a measure of binding affinity in units of concentration) in test [1] is 122 nM and 93.5 to 137 nM; in test [2], 21.9 ± 1.89 nM.

The record behind these values is article PMC7907217 (Biochemistry and Biophysics Reports, 2021).
